The nature of this data set: protease stability score; higher = more stable; yeast display proteolysis, trypsin and chymotrypsin.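 Also: relative to predicted unfolded state with 0 unfolded-like and 1 meaning tenfold more protease.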
The sequence “DEDEESSKLAIEFLLRALITGDEKTMSELLDPNARLVVNGVEIVGMHVIVRHFIEMRLERIHVRIRSWTVFDGRLLNDTELHRHINVNGVEEDRSNRVELFVKKVDGKWKLEMIIIN” displayed a protease stability score of 2.63.

On to “DEDEESTKHALELWEESMETGDEHDLKHLVDPHARLEVGDKTYHGREAVHVLFRRIDHLHDIRIDHVEVQGNKIHMDVTLNYYFNGRVEEEKFEILILKINGRWRIKSMRIK”, for which the protease stability score was 1.78.

Consider “DEDEETAIRVVKEFWKAVMTGDERHLKEYFDPHTRLDVDGQDQHGREDLTEFMFHMRVERTTIHNWRLQGDYVYLHVHVVGQINGKSKETEFYIVVFKINGRWSIHHITIR”, for which the protease stability score was 1.33.

The sequence “DEDEETAREMVEHFLQILLTGDEHNLSRLMDPNARVQIGDKTLHGRVNFVKWIEELGLDRVDVQLRRSRVIGNKIHIHGEERFNGVTMESHVDAVKINGQWHIERVEHR” had a protease stability score of 0.629.

With “DEDEETITRTLEFQRESLRTGDWKFIHRLFDPDARFLINGRDRHGRDLLIDILRKLGVEKINLHVHRMSYVGDKMRVETELVVGDFIFDTRLFEEKVNGKWLMRSMEIH”, the protease stability score came to 0.735.

On to “DEDEETLHEIVEILIRWLKTGDFDAVLKNLDPDARVEINGQELHGREQWYRYIHEEWKKVKNLTIIVSRMHVQGDKVMFEGEVHFDGQRRDVSIDMRVVNGRFRTIKKEVK”, for which the protease stability score was 1.28.

For the sequence “DEDEEVIRRMLETELNAVKTGDWRKFYELADPSVLVDIDGKKIHGRELWSRHLMHLRIDEIHIRIDHMDVVNGVAELHIKMEFRGTIDGVHRKQSTEVILFIKKIDGQWVIQKIEVR”, the protease stability score was determined as 1.27.

In turn, “DEDEEVSRRALEKWIKNFLTGNEDSVLELADPHMRIVQGDKEYHGRHEMRDMMTDWLREIRIKTVEERHFRVIDGRVDHHVTLHGIVNGKETVRRMIVISEKVDGKWILHSLEIR” displayed a protease stability score of 0.907.

In turn, “DEDEEYAREMYRLSVEALSTGDEDTLRHLFDPDVKVSWNGKENIGMEQSLKHWHHLRIEFRRIKIEQVHIQGNKVRLNLRVDGYIRVDGKEDRVHMKSHSVYVKINGKWTMHSIEFE” gave a protease stability score of 1.79.

In turn, “DEDEHARKFVLDRLQHAWETGDEETMEKLMDPNAKLHVNGQDFHGRDTWHKLLHDELRDMGIKHFEFELKSFESQGNKLIIDGLEISEFNGREFRHRVTLIVDKFNGRWVVQSVEIR” came in with a protease stability score of 1.29.

With “DEDEHDAEIWVRLVLKSLRTGDEEFLVKMADPNVRVEVGDKKDHGRNEFRKVVHKFKGVRREIHHVDVHIQGNKAEVEIHGKLNINGVEVHIIHIIRSEKVDGQWYISEVWIIIR”, the protease stability score stood at 1.55.

Sequence “DEDEHDSEIAVKLFVRHMETGDEDVLREYADPRTKILVNGRETHGWETYVKHMQETINKLGVKHTHFELKDVEVQGEKIIAHVRIELNFENHHTTINMILIIHKVDGRWHLKKMKIK” yielded a protease stability score of 0.871.

“DEDEHDVRELIELVLQVERTGNWKIFERLADPNVRLNIDGQEFHGREEALKLREDLLHHWGVDNIEVTLEDVTFQGDKVNSHFTSQFNGREFELIVIIMKIDGKWFLHQIQVHER” returned a protease stability score of 1.19.

“DEDEHEMRELIDKWLHNLKTGDEKRTEELMDPHAKIRTVINGVEYRFHGREMLHYLVQILGVDHMEIKHVEIRVQGNKVENHVDLTLIVGDKHVRTRMILVAEKIDGRWEVKSLFFNIE” returned a protease stability score of 1.96.

In the case of “DEDEHFAENIIRILLHLIVTGDEDQLERLIDPHVKVTIGDKEFHGRLADEILREEIRIKRVHLRDFRIVNGRAESRFKLVGNWNGVETEFTKSVYIDKINGRWIITERHIT”, the protease stability score is 1.16.

Turning to “DEDEHHIRTALEYLRHATETGDEELMSEMADPDVRVHVNGVELHGMESYEKWLHDVLREIRIRHVHLEDSKVIGDFVRLDLRVHTEVNGRHFRHQTILISFKYNGQWRIKSVIWR”, the protease stability score is 1.37.

In turn, “DEDEHHSELASRLMHETTRTGDETSFLNLADPDTRLDINGREFIGREEWVKFFHKWSKHLGAKVIDTRFNDLRVIDGRIKLDMEYIVHVGDKTMHHKMIVFALKVNGRWHLESLKFE” displayed a protease stability score of 0.436.

For the sequence “DEDEHIERHLFEELIELLRTGDFRRLFELIDPHARFVVDGRDHHGMEYAMRERLRRLEEAGVKHIRIRRKDVINGRLHIHSSVNVNGVEQEERIIIEKVNGRWTITEIVID”, the protease stability score amounted to 1.26.

The values are drawn from the NTF2 design screens of Basanta et al. (2020).
